These results are taken from publication PMC9445029, “A Cryptochrome adopts distinct moon- and sunlight states and functions as sun- versus moonlight interpreter in monthly oscillator entrainment” (Nature Communications, 2022).

In assay [1] the target is Platynereis dumerilii L-Cryptochrome (L-Cry), full length, N-terminally His6-tagged (1-567) (Platynereis dumerilii). The assay can be described thus: SEC-MALS; purified dark-state L-Cry on a Superose 6 10/300 column, 0.4 ml/min, SEC buffer 25 mM Bis-Tris propane pH 8.0, 150 mM NaCl; molar mass about 130 kDa against 65.6 kDa for the monomer. For orientation: In gel filtration, larger molecules generally elute earlier.

For assay [2], the target named is T1, L-Cry (Pdu-L-Cry) (Platynereis dumerilii, UniProt Z9ZPX6J9J5).
T1 sequence (Z9ZPX6J9J5 1-565): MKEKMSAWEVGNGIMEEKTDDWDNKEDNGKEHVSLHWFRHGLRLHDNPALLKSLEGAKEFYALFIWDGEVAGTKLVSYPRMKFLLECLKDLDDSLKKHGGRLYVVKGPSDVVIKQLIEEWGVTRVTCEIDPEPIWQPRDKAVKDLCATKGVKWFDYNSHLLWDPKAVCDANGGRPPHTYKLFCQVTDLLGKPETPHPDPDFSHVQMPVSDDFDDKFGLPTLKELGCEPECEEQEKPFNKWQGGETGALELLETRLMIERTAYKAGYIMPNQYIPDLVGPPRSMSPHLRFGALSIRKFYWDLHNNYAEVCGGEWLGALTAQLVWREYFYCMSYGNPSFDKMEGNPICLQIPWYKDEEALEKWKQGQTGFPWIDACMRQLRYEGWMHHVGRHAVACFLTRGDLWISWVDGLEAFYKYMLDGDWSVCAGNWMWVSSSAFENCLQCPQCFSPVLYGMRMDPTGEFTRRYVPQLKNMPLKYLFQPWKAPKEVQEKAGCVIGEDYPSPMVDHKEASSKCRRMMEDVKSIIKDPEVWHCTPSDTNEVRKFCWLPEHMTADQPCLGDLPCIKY
The assay can be described thus: RP-HPLC of chromophore released from purified protein; UV/Vis spectroscopy. Particulars: co-purified from Sf9 cells; dark state oxidized FAD (maxima 450 and 475 nm), photoreduced to anionic radical; pH 8.0, 1 mM TCEP. Format: binding.

“Platynereis dumerilii L-Cryptochrome (L-Cry), full length, N-terminally His6-tagged (1-567) (natural protein)”: the stoichiometry N in assay [1] was found to be 2. With `Cc1cc2nc3c(=O)[nH]c(=O)nc-3n(C[C@H](O)[C@H](O)[C@H](O)COP(=O)(O)OP(=O)(O)OC[C@H]3O[C@@H](n4cnc5c(N)ncnc54)[C@H](O)[C@@H]3O)c2cc1C` [Flavin Adenine Dinucleotide], the “RP-HPLC of chromophore released from purified protein; UV/Vis spectroscopy” value in assay [2] is listed as “purified L-Cry binds Flavin Adenine Dinucleotide (FAD) as its chromophore”.

One may read the stoichiometry N as a count of units in the complex or per binding partner.
